Data as given in paper PMC10926838, “Self-driving laboratories to autonomously navigate the protein fitness landscape” (Nature chemical engineering, 2024).

Assays:
6151 = tested on: T1, 6151; assay: fluorescence of released 4-methylumbelliferone, Michaelis-Menten fit; type: biochemical, Streptomyces sp.; details: 10 nM enzyme, 0.5% DMSO, 10 mM phosphate pH 7, 50 mM NaCl
T1 construct: gene P6F0-P1F1-P5F2-P1F3; pET-22b, Ni-NTA purified
Text: fluorescence of released 4-methylumbelliferone, Michaelis-Menten fit on 6151 | We also tested the enzymes’ Michaelis–Menten kinetic properties

[1] = substrate: Cc1cc(=O)oc2cc(O[C@@H]3O[C@H](CO)[C@@H](O)[C@H](O)[C@H]3O)ccc12; assay: as above; type: biochemical, Streptomyces sp. QM-B814; details: 10 nM enzyme, 0.5% DMSO, 10 mM phosphate pH 7, 50 mM NaCl

Row | Molecule | Km 6151 | Km [1] | kcat [1]
1 | Cc1cc(=O)oc2cc(O[C@@H]3O[C@H](CO)[C@@H](O)[C@H](O)[C@H]3O)ccc12 [4-methylumbelliferyl-β-D-glucopyranoside] | 214 µM |  | 
2 | Bgl3 (Streptomyces sp. QM-B814) (protein, wild-type; pET-22b, E. coli BL21(DE3), Ni-NTA purified) MVPAAQQTATAPDAALTFPEGFLWGSATASYQIEGAAAEDGRTPSIWDTYARTPGRVRNGDTGDVATDHYHRWREDVALMAELGLGAYRFSLAWPRIQPTGRGPALQKGLDFYRRLADELLAKGIQPVATLYHWDLPQELENAGGWPERATAERFAEYAAIAADALGDRVKTWTTLNEPWCSAFLGYGSGVHAPGRTDPVAALRAAHHLNLGHGLAVQALRDRLPADAQCSVTLNIHHVRPLTDSDADADAVRRIDALANRVFTGPMLQGAYPEDLVKDTAGLTDWSFVRDGDLRLAHQKLDFLGVNYYSPTLVSEADGSGTHNSDGHGRSAHSPWPGADRVAFHQPPGETTAMGWAVDPSGLYELLRRLSSDFPALPLVITENGAAFHDYADPEGNVNDPERIAYVRDHLAAVHRAIKDGSDVRGYFLWSLLDNFEWAHGYSKRFGAVYVDYPTGTRIPKASARWYAEVARTGVLPTA |  | 76 µM | 10.7 s⁻¹
